According to the DeepSol protein solubility set:

Experiment: soluble on expression in E. coli; label from the status in PepcDB or PDB records
For “MSTAAKQNRSTSRVSKKKTAAPKEGAAKKSDKGHKYEYVELAKASLTSAQPQHFYAVVIDATFPYKTNQERYICSLKIVDPTLYLKQQKGAGDASDYATLVLYAKRFEDLPIIHRAGDIIRVHRATLRLYNGQRQFNANVFYSSSWALFSTDKRSVTQEINNQDAVSDTTPFSFSSKHATIEKNEISILQNLRKWANQYFSSYSVISSDMYTALNKAQAQKGDFDVVAKILQVHELDEYTNELKLKDASGQVFYTLSLKLKFPHVRTGEVVRIRSATYDETSTQKKVLILSHYSNIITFIQSSKLAKELRAKIQDDHSVEVASLKKNVSLNAVVLTEVDKKHAALPSTSLQDLFHHADSDKELQAQDTFRTQFYVTKIEPSDVKEWVKGYDRKTKKSSSLKGASGKGDNIFQVQFLVKDASTQLNNNTYRVLLYTQDGLGANFFNVKADNLHKNADARKKLEDSAELLTKFNSYVDAVVERRNGFYLIKDTKLIY”, the “soluble on expression in E. coli” value was “soluble”. In the case of “MSTDTSGVGVREIDAGALPTRYARGWHCLGVAKDYLEGKPHGVEAFGTKLVVFADSHGDLKVLDGYCRHMGGDLSEGTVKGDEVACPFHDWRWGGDGRCKLVPYARRTPRMARTRSWTTDVRSGLLFVWHDHEGNPPDPAVRIPEIPEAASDEWTDWRWNRILIEGSNCRDIIDNVTDMAHFFYIHFGLPTYFKNVFEGHIASQYLHNVGRPDVDDLGTSYGEAHLDSEASYFGPSFMINWLHNRYGNYKSESILINCHYPVTQNSFVLQWGVIVEKPKGMSEEMTDKLSRVFTEGVSKGFLQDVEIWKHKTRIDNPLLVEEDGAVYQLRRWYEQFYVDVADIKPEMVERFEIEVDTKRANEFWNAEVEKNLKSREVSDDVPAEQH”, the “soluble on expression in E. coli” value was “soluble”. In the case of “MSTGTPTTQKVVKTSIRLGPVNPPTPTRNTQGGHGFSAEFLEYRRRRQERHTVRLAKLPNETLIIGGANPFDARNVPEAIKKFRDLVDEKIGDKVHKKDANKSKIVFREEEEETQNGTITID”, the “soluble on expression in E. coli” value was “not soluble”. For “MSTHFGYKTVEADKKADLVAGVFHSVAAKYDIMNDVMSFGIHRFWKRYTIEVSGARPGMKVLDLAGGTGDLTAKFSHLVGDKGEVVLADINDSMLKVGRTKLRDRGIVSNVSYVQANAEALPFPDNHFDIITIAFGLRNVTDKDAALRSMNRVLKPGGKLLVLEFSKPQHEVMRKVYDLYSFKVLPKMGQLITKDADSYEYLAESIRMHPDQDTLKQMMVDAGFEQVDYTNMTDGIVALHRGYKLEHHHHHH”, the “soluble on expression in E. coli” value was “not soluble”. For “MSTIDFRPYGGFIFDMDGTLIDTMPAHLAAWQATADRFDFPFCQEWLHSLGGMPSFKIVAELNRHYGLSLDPQTVSKFKMETFAAMELQGDVIQCTGIVLEEYLGQKKIAVGTGSQRESAMRLLSHAGLIDRLDAVVTASDVENHKPCPDTFLLAADRLGIDAQNCLVFEDTELGKRAAHSAGMDCVMVEGNNLVFYPKR”, the “soluble on expression in E. coli” value was “not soluble”. In the case of “MSTKNRTRRTTTRNIRFPNQMIEQINIALDQKGSGNFSAWVIEACRRRLTSEKRAYTSIKSDEE”, the “soluble on expression in E. coli” value was “soluble”. With “MSTKPPIERIMYIQMRTSLEMFRSDLVDLEALANAAKEALEQLPYIPKEPCGKGEDDPLSGPESALRTGRLCGLVCCTATAAENALSTCSKLIDWAYANEPDGVDDAVLADDDDDDDDDDEGGGNGANGGGGTNGGGDGSNGSGNGSPPDGGGVGAAPSPGRGELAETRPSRSGVALDLTPAPAPAGTPVA” the “soluble on expression in E. coli” value was “not soluble”. In the case of “MSTKRKIVVSSDSDDDMPFTQEKQKKAATPAKKRTKPVVLTDDDEEEENAPQKKTAPKRSRKQEKEESDITSDEDELVRGTDEKKKRKGGKKELPVGQKTLDYMFKPSSSSSKRDDPKKKVEKTLVNPADFFKNSPAPSASKLPKVAPKTVEKPKTPAKKPVEISPSTKENTKTKKVSDDEFVDSDDSFDTFTPITVKKKTPEKRKETPKKKELPSVKKEFPKKQSIPVKKEKETPQKKALSVKKDPPKVTSESSSSSQVSTSSVVFQPKPSGPPPALSWVDKYKPKRMGELVGQNGDKSPINKLLEWIKDWAKHNLGEGAKIKKPKPAPWMSSQDGTSFKAALLSGSPGVGKTTCAYMACQQLGLQLVEMNASDVRSKKHLEAKIGELSGSHQIEQFFGAKKCAPQDNQKVHHILIMDEVDGMSGNEDRAGISELIQIIKESKIPIICICNDRQHPKIRTLANYCYDLRFPKPRVETIRSRMMTICSQEKMKIGKEELDEIIELSGHDVRQTIYNLQMRSKGVGAKINQKDMAVDAFSAARRLLDSRTTLMEKQEMFFTDYGIMPLFVQDNYLNMKNEKHSPIQAIRGIRKAADFISLGDLIDRQIRGGGSWKLLNEQSMISAALPAIATGGHLKAMIQFPSWLGKNSTAGKRKRLLQQLVQHTHLKVSAGTHSFATDYAPMLRQKITKPLLEHEADGIPDVISTMTEYDLIKDDTEALTEIVAWPGKIDPASKILSKVKASLTRTLNKTGRMLPYSMDSVSKGKKRGVNSIGIEMDEEGNLVEKFEDEDGESDNEDNEEKTTDVVIKVRTGGGAGASKSARGGRGGGRARGGRGSKK”, the “soluble on expression in E. coli” value was “not soluble”. In the case of “MSTLAPLFLAKHPDGEERQVIRPNVWETSCADTETLSIFHIEGMADPDLLCRVLNLFAVQSFTPERVRADREDHKIRLLLTFPGLSQHRASVIAEKLRSLVTVLAVRLEFSPHAGKVRPSVSEPLLASVV”, the “soluble on expression in E. coli” value was “not soluble”. For “MSTPGTLHIVATPIGNLGDLSPRAQHILRTVTMICAEDTRHTRQLLAHFGIERPLLALHAHNEDTLAERIITRLISGASLALVSDAGTPLISDPGFLLVRAARAAGIRVTPVPGPSALIAALSVSGLPSNRFTFEGFLPAKPTARRDRLTHLAHEPRTLIFYEASHRIAECLTDLATIFGSMRAAVVARELTKIFETVLDGTLATLQTQVANDDNQRKGEFVIIVQGAADQDAAKITEGRRVYALLKEHLPPSSAAKLAAEITGAPRKALYGG”, the “soluble on expression in E. coli” value was “soluble”. For “MSTPPAAPLRIALVGDHDPHITAHRAIPLALRLAGEALGLEIAFDWLASDRLPAEPALERYDGFWCVPGSPYRDADAVLRLIAHARGRRRPFLGTCAGFQHTILEFARNALGWQAATHGEEHPHSDQAVIAALPCALLEAREDVRLLRGSRLALAYAADWIEADYHCRYAIAPRFAAELTGGALRASAWSADGAIRAVELEQHPFFVATLFQPERAALAGVLPPLPKAFVEACRTQRRDHPRRGPTPYYAVIFSSHRSAVDDGYAEAAERMLELASRQPGYLGVESVRGANGFGITVSYWDSEAAIRAWSRHAEHRDAQARGRHDWYAGFSARIARVEREYAFPAQPDTAQSPASS”, the “soluble on expression in E. coli” value was “not soluble”. With “MSTPRIVVGVSGGVDSSVAAWKLAQQGEPIAGLFMQNWADDGSGDCRAEDDRRDAVAVCGVLGIPFHFRDFSGEYWSDVFEHFLAEYAAGRTPNPDVLCNREVKFKHFLDAAQALGAERIATGHYAQVAHRGGRWRLLRGADRGKDQSYFLHQLGQTQLAATLFPIGDLEKSTLRRIAQDAGLPTHAKKDSTGICFIGERDFREFLGRYLPARTGEIRDPQGQRIAEHPGVFYFTLGQREGLNIGGVRGRAAAPWYVVGKDVANNVLYVDQDRDSPLLQSRWLQSEQAHWVTGAPPARRFSCTAQTRYRQPDESCTVDVQDDGSVQVRFERPQRAVTPGQSLVLYDGEECLGGAVIAATDAPLERQLAGSSFSSEVVALEHHHHHH” the “soluble on expression in E. coli” value was “not soluble”. For “MSTPRPSLTLTLLQAREAAMSFFRPSLNQHGLTEQQWRVIRILRQQGEMESYQLANQACILRPSMTGVLARLERDGIVRRWKAPKDQRRVYVNLTEKGQQCFVSMSGDMEKNYQRIQERFGEEKLAQLLELLNELKKIKP”, the “soluble on expression in E. coli” value was “soluble”. With “MSTPSLYEMLTFSFSGELPLEQISERDQLILSVMDNMQRIINCRAGTLAHLPDYGLPDLSLIHQGMAAGIHGLMRQIEETLLRYEPRLSQIQVELLPQPRPGHLNYLIHAQLPDTGWIRFDGVFSPEGRIVLRHLKQQERAY” the “soluble on expression in E. coli” value was “not soluble”. For “MSTPVDLTEGLDGAKLAVTVLMIRDSPTGLEVYVQERVSSMPTFPNATVFPGGGVDPRDFELDGVESEHETFGGPSLMHWARSLGTNRNRARALLFAAARELFEETGTLLATHSDGTPIPDATQYHPQRLALESHRLSLSQVLARHDLTLRSEWLRPSTRWVSPETDEKRFDMFAFVAVQPPGQEPDGNTREAASTGWFSPSLILDGWRAGLIRLVIPTWAQLLILSRFDCVRDVLEFLRRADMTPIIGDPVDDPRFEEFYSFTPPERF”, the “soluble on expression in E. coli” value was “not soluble”. In the case of “MSTQEDFLKRLESVTSRLEAIAGQKPALAPKPTNLGGPSAYSLHFFFALQFYFSSSPPTSTMDSLYYSAPRPFNKYPRGYRPVTDSTQDLRSFGGGLRPSSSWSSFPQQVVIDQRSATLPHFPSSCVSPVSPTSPVDRNTNYWTAEEPPRSRRPIRSESNSTLFDNNFSPRELSPLSVASEYCNNPQPASMYGHRSVQSPVPAFQDAPPRGYDNVPPPQSYKQPTHPSPSQRETDFLRNLQRQKAEAHNMSSSWYAGDQSSRQTDFGTLPSPQHYNSNSSDHHPPRRLAKTQSDLSFDSLNNTYFNNTSNHTPSNTFLNHSTVDSHNNSSGQLHNSINNYTASTNGNQGHRLDGFFRNRVIEPNWMTDPPPPKSFREDYIIRNAPLNSNLNSDFERFRLEPTYREPRGNSLVSEQPNFRSYHNDEPTQEQPNPRYQRSSSNFMQQRDPSPVRSPPIISYAQQSNPFSFPNPINQVNYNQEDHSSRVSTGGYQDRRVAQAPKEATTNVYQNVPAAAAVNFREKERPTSQYLESNRNSAAFPNEPIKLTNDRVLRIHPHQQVQDQYHHHQMPEEPHYPQPHQPIQQSQRARIQSPLRDFARLTSPIREVAPQPYHPPQAQNQNQNPERIFSPVESKVFNRSGPTVINGFTSNRHTYNSHTDDFDSRNRRDSSQPPVAIIEPNINVHMPSDPMPYNKPHFGHGHGHSNGNNNVHSVKPTSHYSNPTFSPTSTFSPNSNYDNDNDSDLDIEEMARRALPRYLRDNEKTGRHRNLYGDNLHGILIKNPSLHRSSSKKVVFIDQNKASAAASAGDSGEVPAHVRAYDDAIEEPLANWSKLTDQLGGDLAAVKPKVLAMFASMRNYLWSAAGKSEPSAEEAQKMLTPVINLLGEINNFKDTKRKTPHWNHLNSVAEALPALGWVTVKKTPAPYVKEFIEAAQFYINPILREFKETDPRHVEWTKAWKAVFEEMQKFVRQVHTTGLVWNSAPGAAPDASASAPSAAAPSAPKAPAGPGGPPPPPPPPPADFFANIAPPPVDADKASRDALFASLNQGEGVTSRLKKVTADMQTHKNPNLRGTAVVPAAGASQGGSSPAKPAAPVRKPPHKELENGKQWIVEYFVNDPNIVLDVADKKQTVYIYRCENSVIKVNGKANSITLDGCKKTSVVFDALVAQCETVNCQSVQIQTLGELPTLSIQKTDGCQVYLSKVAQGCEIVTSKSSEMNISVQTNDDGDYSEFPVPEQFKTTFVNGKLVTVVSDIC”, the “soluble on expression in E. coli” value was “not soluble”. For “MSTRLTTLSHTSEGHRVSVHYGYDDKGRLTGERQTVENPETGELLWHHETGHAYNEQGLANRVTPDSLPPVEWLTYGSGYLAGMKLGGTPLLEFTRDRLHRETVRSFGSMAGSNAAYKLTSTYTPAGQLQSQHLNSLVYDRDYGWNDNGDLVRISGPRQTREYGYSATGRLESVRTLAPDLDIRIPYATDPAGNRLPDPELHPDSTLTVWPDNRIAEDAHYVYRHDEYGRLTEKTDRIPAGVIRTDDERTHHYHYDSQHRLVFYTRIQHGEPLVESRYLYDPLGRRMAKRVWRRERDLTGWMSLSRKPEVTWYGWDGDRLTTVQTDTTRIQTVYEPGSFTPLIRVETENGEREKAQRRSLAETLQQEGSENGHGVVFPAELVRLLDRLEEEIRADRVSSESRAWLAQCGLTVEQLARQVEPEYTPARKVHFYHCDHRGLPLALISEDGNTAWRGEYDEWGNQLNEENPHHLHQPYRLPGQQHDEESGLYYNRHRHYDPLQGRYITPDPIGLRGGWNMYQYPLNPIQVIDPMGLDAIENMTSGGLIYAVSGVPGLIAANSITNSAYQFGYDMDAIVGGAHNGAADAMRHCYLMCRMTKTFGSTIADVIGKNHEAAGDRQGQPAKERIMDLKNNTVGIACGDFSAKCSDACIEKYNTGQLFGLDGIKADNPIKAKQGSSDASNYLEHHHHHH”, the “soluble on expression in E. coli” value was “not soluble”.
